Test results published in paper PMC3074572 (2011).

Molecular target: TGFβ1 (Homo sapiens, UniProt P01137)
Sequence (P01137 279-390): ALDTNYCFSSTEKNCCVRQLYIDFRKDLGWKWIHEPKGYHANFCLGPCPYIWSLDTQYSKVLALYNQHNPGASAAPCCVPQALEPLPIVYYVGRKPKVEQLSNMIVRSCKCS

Kd: 10.4 nM
Binder: KRIWFIPRSSWY [KRIWFIPRSSWY peptide]
